{"source": "paper PMC10713552", "about": "(Communications Biology, 2023)", "binders": {"B1": {"name": "0324-LN3_T65H (antibody, V domains shown)", "VH": "QVQLQQWGPGLVNPSETLSLTCSVSGGSFATENYYWSWIRQHPGEGLEWIGNIYFSGNHYYNPSLNNRFTISFDTSKNHLSLKLPSVTAADTAVYYCARGTIYFDLSGYRRVDPFHIWGQGTMVIVSS", "VL": "not shown", "notes": "source: Expi293F, transfected"}, "B2": {"name": "0300-IN3_T65A (antibody, V domains shown)", "VH": "B1 VH with H59A, L106I", "VL": "not shown", "notes": "source: Expi293F, transfected"}, "B3": {"name": "0310-IN3_T65N (antibody, V domains shown)", "VH": "B1 VH with H59N, L106I", "VL": "not shown", "notes": "source: Expi293F, transfected"}, "B4": {"name": "0308-IN3_T65L (antibody, V domains shown)", "VH": "B1 VH with H59L, L106I", "VL": "not shown", "notes": "source: Expi293F, transfected"}, "B5": {"name": "0332-LN3_T65R (antibody, V domains shown)", "VH": "B1 VH with H59R", "VL": "not shown", "notes": "source: Expi293F, transfected"}, "B6": {"name": "0387-YN3_T65P (antibody, V domains shown)", "VH": "B1 VH with H59P, L106Y", "VL": "not shown", "notes": "source: Expi293F, transfected"}, "B7": {"name": "0314-IN3_T65S (antibody, V domains shown)", "VH": "B1 VH with H59S, L106I", "VL": "not shown", "notes": "source: Expi293F, transfected"}, "B8": {"name": "0305-IN3_T65H (antibody, V domains shown)", "VH": "B1 VH with L106I", "VL": "not shown", "notes": "source: Expi293F, transfected"}, "B9": {"name": "0304-IN3_T65G (antibody, V domains shown)", "VH": "B1 VH with H59G, L106I", "VL": "not shown", "notes": "source: Expi293F, transfected"}, "B10": {"name": "0320-LN3_T65D (antibody, V domains shown)", "VH": "B1 VH with H59D", "VL": "not shown", "notes": "source: Expi293F, transfected"}, "B11": {"name": "0336-LN3_T65W (antibody, V domains shown)", "VH": "B1 VH with H59W", "VL": "not shown", "notes": "source: Expi293F, transfected"}, "B12": {"name": "0328-LN3_T65M (antibody, V domains shown)", "VH": "B1 VH with H59M", "VL": "not shown", "notes": "source: Expi293F, transfected"}, "B13": {"name": "0339-MN3_T65D (antibody, V domains shown)", "VH": "B1 VH with H59D, L106M", "VL": "not shown", "notes": "source: Expi293F, transfected"}, "B14": {"name": "0357-N3_T65A (antibody, V domains shown)", "VH": "B1 VH with H59A, L106R", "VL": "not shown", "notes": "source: Expi293F, transfected"}, "B15": {"name": "0322-LN3_T65F (antibody, V domains shown)", "VH": "B1 VH with H59F", "VL": "not shown", "notes": "source: Expi293F, transfected"}, "B16": {"name": "0355-MN3_T65W (antibody, V domains shown)", "VH": "B1 VH with H59W, L106M", "VL": "not shown", "notes": "source: Expi293F, transfected"}, "B17": {"name": "0369-N3_T65Q (antibody, V domains shown)", "VH": "B1 VH with H59Q, L106R", "VL": "not shown", "notes": "source: Expi293F, transfected"}, "B18": {"name": "0375-N3_T65Y (antibody, V domains shown)", "VH": "B1 VH with H59Y, L106R", "VL": "not shown", "notes": "source: Expi293F, transfected"}, "B19": {"name": "0343-MN3_T65H (antibody, V domains shown)", "VH": "B1 VH with L106M", "VL": "not shown", "notes": "source: Expi293F, transfected"}, "B20": {"name": "0389-YN3_T65R (antibody, V domains shown)", "VH": "B1 VH with H59R, L106Y", "VL": "not shown", "notes": "source: Expi293F, transfected"}, "B21": {"name": "0366-N3_T65M (antibody, V domains shown)", "VH": "B1 VH with H59M, L106R", "VL": "not shown", "notes": "source: Expi293F, transfected"}, "B22": {"name": "0323-LN3_T65G (antibody, V domains shown)", "VH": "B1 VH with H59G", "VL": "not shown", "notes": "source: Expi293F, transfected"}, "B23": {"name": "0368-N3_T65P (antibody, V domains shown)", "VH": "B1 VH with H59P, L106R", "VL": "not shown", "notes": "source: Expi293F, transfected"}, "B24": {"name": "0385-YN3_T65M (antibody, V domains shown)", "VH": "B1 VH with H59M, L106Y", "VL": "not shown", "notes": "source: Expi293F, transfected"}, "B25": {"name": "0376-YN3_T65A (antibody, V domains shown)", "VH": "B1 VH with H59A, L106Y", "VL": "not shown", "notes": "source: Expi293F, transfected"}, "B26": {"name": "0384-YN3_T65L (antibody, V domains shown)", "VH": "B1 VH with H59L, L106Y", "VL": "not shown", "notes": "source: Expi293F, transfected"}, "B27": {"name": "0321-LN3_T65E (antibody, V domains shown)", "VH": "B1 VH with H59E", "VL": "not shown", "notes": "source: Expi293F, transfected"}, "B28": {"name": "0325-LN3_T65I (antibody, V domains shown)", "VH": "B1 VH with H59I", "VL": "not shown", "notes": "source: Expi293F, transfected"}, "B29": {"name": "0382-YN3_T65I (antibody, V domains shown)", "VH": "B1 VH with H59I, L106Y", "VL": "not shown", "notes": "source: Expi293F, transfected"}, "B30": {"name": "0361-N3_T65G (antibody, V domains shown)", "VH": "B1 VH with H59G, L106R", "VL": "not shown", "notes": "source: Expi293F, transfected"}, "B31": {"name": "0390-YN3_T65S (antibody, V domains shown)", "VH": "B1 VH with H59S, L106Y", "VL": "not shown", "notes": "source: Expi293F, transfected"}, "B32": {"name": "0393-YN3_T65W (antibody, V domains shown)", "VH": "B1 VH with H59W, L106Y", "VL": "not shown", "notes": "source: Expi293F, transfected"}, "B33": {"name": "0364-N3_T65K (antibody, V domains shown)", "VH": "B1 VH with H59K, L106R", "VL": "not shown", "notes": "source: Expi293F, transfected"}, "B34": {"name": "0365-N3_T65L (antibody, V domains shown)", "VH": "B1 VH with H59L, L106R", "VL": "not shown", "notes": "source: Expi293F, transfected"}}, "note": "Changes are numbered by the printed parent chain."}
{"molecular_target": "Omicron BA.1 spike protein ectodomain (BLI) (SARS-CoV-2 Omicron BA.1, strain)", "assay": "BLI", "units": {"Kd": "nM", "koff": "s⁻¹", "kon": "M⁻¹ s⁻¹"}}
{"binder": "B1", "Kd": 1.16, "koff": 0.000413, "kon": 356000}
{"binder": "B2", "Kd": 3.61, "koff": 0.000404, "kon": 112000}
{"binder": "B3", "Kd": 15.2, "koff": 0.000949, "kon": 62500}
{"binder": "B4", "Kd": 3.92, "koff": 0.000364, "kon": 93000}
{"binder": "B5", "Kd": 38.9, "koff": 0.0018, "kon": 46200}
{"binder": "B6", "Kd": 9.21, "koff": "9.1e-05", "kon": 9880}
{"binder": "B7", "Kd": 68.7, "koff": 0.00114, "kon": 16600}
{"binder": "B8", "Kd": 2.89, "koff": 0.000368, "kon": 128000}
{"molecular_target": "D614G-Hexapro (WT) spike ectodomain (SARS-CoV-2 Wuhan-Hu-1 D614G, D614G)", "assay": "BLI", "units": {"Kd": "nM", "koff": "s⁻¹", "kon": "M⁻¹ s⁻¹"}}
{"binder": "B1", "Kd": 0.276, "koff": 0.000291, "kon": "1.06e+06"}
{"binder": "B2", "kon": 210}
{"binder": "B9", "Kd": 45.4, "koff": 0.000221, "kon": 4880}
{"binder": "B10", "Kd": 226, "koff": 0.000716, "kon": 3160}
{"binder": "B11", "Kd": 0.15, "koff": 0.000117, "kon": 782000}
{"binder": "B4", "Kd": 515, "koff": 0.000134, "kon": 261}
{"binder": "B12", "Kd": 2.99, "koff": 0.00124, "kon": 415000}
{"binder": "B13", "Kd": 5.95, "koff": "2e-05", "kon": 3350}
{"binder": "B14", "Kd": 0.562, "koff": 0.000124, "kon": 221000}
{"binder": "B15", "Kd": 2.52, "koff": 0.000726, "kon": 288000}
{"binder": "B16", "Kd": 0.474, "koff": 0.00041, "kon": 865000}
{"binder": "B17", "Kd": 65.4, "koff": 0.000113, "kon": 1730}
{"binder": "B18", "kon": 265}
{"binder": "B19", "Kd": 7760, "koff": 0.000643, "kon": 82.8}
{"binder": "B20", "Kd": 839, "koff": 0.00107, "kon": 1280}
{"binder": "B21", "Kd": 8.15, "koff": "2.08e-06", "kon": 255}
{"binder": "B22", "Kd": 145, "koff": 0.000932, "kon": 6420}
{"binder": "B23", "Kd": 52.9, "koff": 0.000253, "kon": 4790}
{"binder": "B24", "Kd": 9.93, "koff": 0.00157, "kon": 158000}
{"binder": "B25", "Kd": 1.82, "koff": 0.000425, "kon": 233000}
{"binder": "B26", "Kd": 4.26, "koff": 0.000957, "kon": 225000}
{"binder": "B27", "Kd": 378, "koff": 0.00157, "kon": 4150}
{"binder": "B28", "Kd": 6.57, "koff": 0.00131, "kon": 199000}
{"binder": "B29", "Kd": 2690, "koff": 0.000811, "kon": 302}
{"binder": "B30", "Kd": 549, "koff": 0.000177, "kon": 323}
{"binder": "B31", "Kd": 830, "koff": 0.00105, "kon": 1270}
{"binder": "B32", "Kd": 189, "koff": 0.000535, "kon": 2840}
{"binder": "B8", "Kd": 387, "koff": "9.99e-05", "kon": 258}
{"binder": "B33", "Kd": 288, "koff": "9.92e-05", "kon": 344}
{"binder": "B34", "Kd": 387, "koff": 0.000123, "kon": 318}
